Experimental findings from paper PMC6920325 are described below.

As usually defined, the Kd is the free concentration of one partner at which half of the binding sites on the other are occupied at equilibrium, for simple one-to-one binding.

For this data set, the target named is LDL-R (human, UniProt P01130 22-788). The data set can be described thus: ELONA.
LDL-R, sequence (P01130 22-788): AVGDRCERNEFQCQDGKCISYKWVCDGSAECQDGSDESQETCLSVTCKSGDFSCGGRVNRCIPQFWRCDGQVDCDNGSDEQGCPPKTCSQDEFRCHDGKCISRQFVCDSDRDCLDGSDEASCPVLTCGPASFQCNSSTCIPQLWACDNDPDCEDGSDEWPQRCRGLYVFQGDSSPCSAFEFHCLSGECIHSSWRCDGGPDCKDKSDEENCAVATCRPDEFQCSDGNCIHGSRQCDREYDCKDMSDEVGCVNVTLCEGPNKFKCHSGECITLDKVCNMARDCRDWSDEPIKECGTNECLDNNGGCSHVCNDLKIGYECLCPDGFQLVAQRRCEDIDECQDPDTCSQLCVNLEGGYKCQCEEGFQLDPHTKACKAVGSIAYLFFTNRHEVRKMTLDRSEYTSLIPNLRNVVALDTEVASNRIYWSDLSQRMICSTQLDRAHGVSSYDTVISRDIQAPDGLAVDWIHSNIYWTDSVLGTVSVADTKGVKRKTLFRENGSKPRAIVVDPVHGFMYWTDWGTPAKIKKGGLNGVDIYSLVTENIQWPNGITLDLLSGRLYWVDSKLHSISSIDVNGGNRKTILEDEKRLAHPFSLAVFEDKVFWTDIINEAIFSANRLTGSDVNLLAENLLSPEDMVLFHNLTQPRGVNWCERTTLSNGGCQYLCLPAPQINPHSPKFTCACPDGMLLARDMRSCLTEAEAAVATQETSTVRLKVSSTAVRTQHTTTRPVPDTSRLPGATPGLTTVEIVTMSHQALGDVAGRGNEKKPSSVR

B1: RNV-L7 (ssDNA)
DNA: GGACAGGACCACACCCAGCGCGGTCGGCGGGTGGGCGGGGGGAGAACGAGGTAGGGGTCAGGCTCCTGTGTGTCGCTTTGT
As for B1, the equilibrium dissociation constant (Kd) was determined as 19.6 nM.

In the case of CGGTCGGCGGGTGGGCGGGGGGAGAACGAGGTAGGGGTCA (ssDNA) [RNV-L7 truncated], the binding result is “no binding”.
